The values that follow come from PMC10403523, “The AT-hook is an evolutionarily conserved auto-regulatory domain of SWI/SNF required for cell lineage priming” (Nature Communications, 2023).

This experiment has as its target T1, histone H4 of Xenopus laevis, in the 29N59 nucleosome (Xenopus laevis, UniProt P62799 1-103).
T1 construct: histone H4, Xenopus laevis; Stood within the nucleosome in the cross-linking
The experiment can be described thus: cross-linking; BS3 cross-linking with mass spectrometry (CX-MS): 35 nM FLAG tagged SWI/SNF, 35 nM 29-N-59 nucleosomes, 200 nM Gal4-VP16, 115 μM BS3, room temperature, 2 h. As to conditions: both partners purified.

B1: Snf2, catalytic subunit of yeast SWI/SNF, with a C-terminal double FLAG epitope (enzyme)
chain: MNIPQRQFSNEEVNRCYLRWQHLRNEHGMNAPSVPEFIYLTKVLQFAAKQRQELQMQRQQQGISGSQQNIVPNSSDQAELPNNASSHISASASPHLAPNMQLNGNETFSTSAHQSPIMQTQMPLNSNGGNNMLPQRQSSVGSLNATNFSPTPANNGENAAEKPDNSNHNNLNLNNSELQPQNRSLQEHNIQDSNVMPGSQINSPMPQQAQMQQAQFQAQQAQQAQQAQQAQQAQARLQQGRRLPMTMFTAEQSELLKAQITSLKCLVNRKPIPFEFQAVIQKSINHPPDFKRMLLSLSEFARRRQPTDQNNQSNLNGGNNTQQPGTNSHYNNTNTDNVSGLTRNAPLDSKDENFASVSPAGPSSVHNAKNGTLDKNSQTVSGTPITQTESKKEENETISNVAKTAPNSNKTHTEQNNPPKPQKPVPLNVLQDQYKEGIKVVDIDDPDMMVDSFTMPNISHSNIDYQTLLANSDHAKFTIEPGVLPVGIDTHTATDIYQTLIALNLDTTVNDCLDKLLNDECTESTRENALYDYYALQLLPLQKAVRGHVLQFEWHQNSLLTNTHPNFLSKIRNINVQDALLTNQLYKNHELLKLERKKTEAVARLKSMNKSAINQYNRRQDKKNKRLKFGHRLIATHTNLERDEQKRAEKKAKERLQALKANDEEAYIKLLDQTKDTRITHLLRQTNAFLDSLTRAVKDQQKYTKEMIDSHIKEASEEVDDLSMVPKMKDEEYDDDDDNSNVDYYNVAHRIKEDIKKQPSILVGGTLKDYQIKGLQWMVSLFNNHLNGILADEMGLGKTIQTISLLTYLYEMKNIRGPYLVIVPLSTLSNWSSEFAKWAPTLRTISFKGSPNERKAKQAKIRAGEFDVVLTTFEYIIKERALLSKVKWVHMIIDEGHRMKNAQSKLSLTLNTHYHADYRLILTGTPLQNNLPELWALLNFVLPKIFNSVKSFDEWFNTPFANTGGQDKIELSEEETLLVIRRLHKVLRPFLLRRLKKDVEKELPDKVEKVVKCKMSALQQIMYQQMLKYRRLFIGDQNNKKMVGLRGFNNQIMQLKKICNHPFVFEEVEDQINPTRETNDDIWRVAGKFELLDRILPKLKATGHRVLIFFQMTQIMDIMEDFLRYINIKYLRLDGHTKSDERSELLRLFNAPDSEYLCFILSTRAGGLGLNLQTADTVIIFDTDWNPHQDLQAQDRAHRIGQKNEVRILRLITTNSVEEVILERAYKKLDIDGKVIQAGKFDNKSTSEEQEALLRSLLDAEEERRKKRESGVEEEEELKDSEINEILARNDEEMAVLTRMDEDRSKKEEELGVKSRLLEKSELPDIYSRDIGAELKREESESAAVYNGRGARERKTATYNDNMSEEQWLRQFEVSDDEKNDKQARKQRTKKEDKSEAIDGNGEIKGENIDADNDGPRINNISAEDRADTDLAMNDDDFLSKKRKAGRPRGRPKKVKLEGSENSEPPALESSPVTGDNSPSEDFMDIPKPRTAGKTSVKSARTSTRGRGRGRGRGRGRGRGRGRPPKARNGLDYVRTPAAATSPIDIREKVAKQALDLYHFALNYENEAGRKLSDIFLSKPSKALYPDYYMIIKYPVAFDNINTHIETLAYNSLKETLQDFHLIFSNARIYNTEGSVVYEDSLELEKVVTKKYCEIMGDNSQLDFTEFDEQYGTRPLVLPPVVTSSVAESFTDEADSSMTEASV
notes: Snf2, catalytic subunit of SWI/SNF, S. cerevisiae; also called WT; SNF2-2FLAG; source: S. cerevisiae, SNF2-2FLAG in a Δsnf2 strain; not shown: FLAG x2, C-terminal, kept
As for B1, the binding result is on record as “binds”.
